Values of other authors, collected in paper PMC2799686.

Biological target: DnaK (Escherichia coli) (UniProt P0A6Y8)
Test: competition

Chain of DnaK (Escherichia coli) (P0A6Y8 2-638): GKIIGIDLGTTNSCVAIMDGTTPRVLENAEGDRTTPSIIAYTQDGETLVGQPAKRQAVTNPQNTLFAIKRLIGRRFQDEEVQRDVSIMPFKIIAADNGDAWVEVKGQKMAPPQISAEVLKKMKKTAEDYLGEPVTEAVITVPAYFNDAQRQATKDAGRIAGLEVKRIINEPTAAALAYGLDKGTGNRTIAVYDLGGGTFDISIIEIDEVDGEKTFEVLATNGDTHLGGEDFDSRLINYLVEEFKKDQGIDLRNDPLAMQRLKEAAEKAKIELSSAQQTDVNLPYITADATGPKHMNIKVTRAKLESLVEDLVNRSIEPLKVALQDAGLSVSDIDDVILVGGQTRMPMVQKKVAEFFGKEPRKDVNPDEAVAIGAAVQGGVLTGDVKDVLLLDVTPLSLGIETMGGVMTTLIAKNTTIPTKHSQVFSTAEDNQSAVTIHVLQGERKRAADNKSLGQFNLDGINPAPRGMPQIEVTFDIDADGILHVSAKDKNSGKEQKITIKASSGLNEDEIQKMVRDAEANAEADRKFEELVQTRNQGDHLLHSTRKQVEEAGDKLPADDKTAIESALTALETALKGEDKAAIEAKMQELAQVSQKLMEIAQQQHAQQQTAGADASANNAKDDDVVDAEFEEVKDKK
Chain of pyrrhocoricin (P37362 whole entry): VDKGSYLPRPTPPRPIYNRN

Kd: 50 µM
Substance: pyrrhocoricin (from UniProt P37362)
